Laboratory results published in patent US20020197690.

Molecular target: T1, 35S-labeled in vitro translated GID
T1 chain: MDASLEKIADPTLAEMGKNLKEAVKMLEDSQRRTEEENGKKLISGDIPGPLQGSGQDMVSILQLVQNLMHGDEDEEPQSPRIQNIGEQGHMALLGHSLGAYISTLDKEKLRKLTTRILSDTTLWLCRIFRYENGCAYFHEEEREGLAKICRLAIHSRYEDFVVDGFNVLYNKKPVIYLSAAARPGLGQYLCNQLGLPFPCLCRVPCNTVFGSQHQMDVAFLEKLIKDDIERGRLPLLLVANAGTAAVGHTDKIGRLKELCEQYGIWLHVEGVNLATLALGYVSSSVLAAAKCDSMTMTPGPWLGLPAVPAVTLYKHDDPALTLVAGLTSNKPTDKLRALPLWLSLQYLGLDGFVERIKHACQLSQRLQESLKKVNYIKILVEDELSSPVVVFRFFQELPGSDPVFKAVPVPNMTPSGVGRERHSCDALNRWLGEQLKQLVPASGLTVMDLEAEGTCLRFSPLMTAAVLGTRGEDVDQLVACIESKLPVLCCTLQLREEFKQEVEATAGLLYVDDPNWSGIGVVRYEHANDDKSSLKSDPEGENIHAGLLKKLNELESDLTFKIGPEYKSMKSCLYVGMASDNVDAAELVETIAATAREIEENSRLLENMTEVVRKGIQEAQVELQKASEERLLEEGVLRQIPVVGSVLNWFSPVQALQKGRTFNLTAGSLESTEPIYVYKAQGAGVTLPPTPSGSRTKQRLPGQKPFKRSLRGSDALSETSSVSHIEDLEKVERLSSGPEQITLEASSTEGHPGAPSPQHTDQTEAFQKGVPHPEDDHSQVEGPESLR

B1: recombinant caspase-3 (Pharmingen) (protein)
chain: SGISLDNSYKMDYPEMGLCIIINNKNFHKSTGMTSRSGTDVDAANLRETFRNLKYEVRNKNDLTREEIVELMRDVSKEDHSKRSSFVCVLLSHGEEGIIFGTNGPVDLKKITNFFRGDRCRSLTGKPKLFIIQACRGTELDCGIETDSGVDDDMACHKIPVEADFLYAYSTAPGYYSWRNSKDGSWFIQSLCAMLKQYADKLEFMHILTRVNRKVATEFESFSFDATFHAKKQIPCIVSMLTKELYFYH
With B1 the “in vitro caspase-3 assay: cleavage of 35S-labeled in vitro translated GID (SDS-PAGE, autoradiography)” value was “Increasing amounts of caspase-3 incubated with GID resulted in greater amounts of a cleavage product of approximately 58 kDa, which was not observed in the presence of incubation with buffer alone”.
